The values below come from US20080014599A1 (published 2008).

In assay [1] the target is T1, TSC2 (human, UniProt P49815 1-1807, limits assumed).
T1 construct: Untagged TSC2 in 293T cell extracts, endogenous or from a transfected TSC2 cDNA; Some extracts of the pull-downs may hold HA-TSC2; also called tuberin; endogenous TSC2
As to the kind of experiment: co-IP with anti-FLAG from 293T extracts (FIG. 34). The protocol:
Description: 293T cells were transiently transfected with either empty plasmid or with plasmid containing FLAG-hRTP801 or FLAG-hRTP801-L (REDD2) cDNAs. 48 hrs. post-transfection, cobalt chloride (150 uM) was added (or omitted) for another 24 hrs. Cytosolic extracts prepared and IP was done using anti-FLAG antibodies. Alternatively, 293T cells were transiently transfected with plasmid containing FLAG-hRTP801 cDNA and plasmid containing TSC1 or TSC2 cDNAs or both. 48 hrs. post transfection, cobalt chloride (150 uM) was added for another 24 hrs. Cytosolic extracts prepared and IP was done using anti-TSC1, anti-TSC2 or normal rabbit IgG (NRIgG) antibodies. Alternatively, 293T cells were transiently transfected with either empty plasmid,plasmid containing FLAG-hRTP801 cDNA and plasmids containing either TSC1 and/or TSC2 cDNAs. 48 hrs. post transfection, cobalt chloride (150 uM) was added for another 24 hrs. Cytosolic extracts prepared and IP was done using anti-FLAG antibodies.

Assay [2] deals with T1, TSC2. Nature of the assay: in vitro pull-down from extract with 6× His baits (FIG. 13).
Assay [3] addresses T2, HA-SV5-full length hRTP801 (human, UniProt Q9NX09 1-232).
T2 construct: Full length, expressed in transfected 293T HEK cells; also called HA-SV5-hRTP801; HA-full length hRTP801; not shown: HA and SV5 tags
T2 sequence: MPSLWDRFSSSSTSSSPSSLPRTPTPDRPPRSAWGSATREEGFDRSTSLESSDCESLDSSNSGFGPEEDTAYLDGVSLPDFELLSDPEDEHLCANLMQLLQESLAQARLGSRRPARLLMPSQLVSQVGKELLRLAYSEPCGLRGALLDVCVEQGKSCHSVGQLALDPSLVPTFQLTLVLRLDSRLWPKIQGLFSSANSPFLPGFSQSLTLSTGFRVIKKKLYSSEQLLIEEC
As to the kind of experiment: co-IP with M2 anti-FLAG resin from 293T HEK extracts, immunoblot (FIG. 21). The protocol: 293T HEK cells were co-transfected with a plasmid containing cDNA of HA-SV5-full length hRTP801 (“Prey”) as well as plasmid containing cDNA of one of the following: FLAG-full length hRTP801, FLAG-(C) hRTP801, FLAG-(N-C1) hRTP801, FLAG-(N-C1) hRTP801, FLAG-(N-C2)hRTP801 and FLAG-(C3) hRTP801. Forty-eight hours after transfection, cells were treated with 150 uM cobalt chloride for 18 hrs to mimick hypoxic stress conditions. The next day, cytosolic extracts were made by mechanic lysis under hypotonic conditions. FLAG-tagged bait proteins were immunoprecipitated with M2 anti-FLAG resin (Sigma). Following extensive washing, immunoprecipitated material was analyzed by immunblotting with either anti-hRTP801 polyclonal antibodies (proprietary) or with anti-SV5 polyclonal antibodies (AbCam).
For orientation: In western blotting, separated proteins are transferred to a membrane and probed.

Assay [4] deals with T3, HA-tagged TSC2 “N” fragment (a.a. 2-935) (human, UniProt P49815 2-935).
T3 construct: Printed as a.a; also called HA-“N” fragment of TSC2; not shown: HA tag
Nature of the assay: co-IP with anti-FLAG, anti-HA blot (FIG. 17). On the procedure: Cytosolic extracts were prepared and IP was done using anti-FLAG antibodies. Analysis of the immnocomplexes was done with anti-HA.

Assay [5] addresses T4, HA-tagged TSC2 (HA-TSC2) (human, UniProt P49815 1-1807).
T4 construct: Expressed in transfected 293T cells; also called full length HA-tagged TSC2; not shown: HA tag
As to the kind of experiment: co-IP with anti-FLAG from transfected 293T post-nuclear supernatant (FIG. 25). The protocol:
TSC2 region that binds hRTP801 (FIG. 25). Human TSC2 HA-tagged “N” and “C” fragments (FIG. 25, upper panel) as well as full length HA-tagged TSC2 were transfected into 293T cells along with FLAG-hRTP801 or with empty vector. Forty-eight hours after transfection, the cells were treated with CoCl₂ for overnight. Cells were harvested and post-nuclear supernatant was prepared and used for IP with anti-FLAG antibodies. […] Similar results are achieved with RTP801L

T1 sequence (P49815 other isoform, or with tags, fused parts or gaps limits assumed): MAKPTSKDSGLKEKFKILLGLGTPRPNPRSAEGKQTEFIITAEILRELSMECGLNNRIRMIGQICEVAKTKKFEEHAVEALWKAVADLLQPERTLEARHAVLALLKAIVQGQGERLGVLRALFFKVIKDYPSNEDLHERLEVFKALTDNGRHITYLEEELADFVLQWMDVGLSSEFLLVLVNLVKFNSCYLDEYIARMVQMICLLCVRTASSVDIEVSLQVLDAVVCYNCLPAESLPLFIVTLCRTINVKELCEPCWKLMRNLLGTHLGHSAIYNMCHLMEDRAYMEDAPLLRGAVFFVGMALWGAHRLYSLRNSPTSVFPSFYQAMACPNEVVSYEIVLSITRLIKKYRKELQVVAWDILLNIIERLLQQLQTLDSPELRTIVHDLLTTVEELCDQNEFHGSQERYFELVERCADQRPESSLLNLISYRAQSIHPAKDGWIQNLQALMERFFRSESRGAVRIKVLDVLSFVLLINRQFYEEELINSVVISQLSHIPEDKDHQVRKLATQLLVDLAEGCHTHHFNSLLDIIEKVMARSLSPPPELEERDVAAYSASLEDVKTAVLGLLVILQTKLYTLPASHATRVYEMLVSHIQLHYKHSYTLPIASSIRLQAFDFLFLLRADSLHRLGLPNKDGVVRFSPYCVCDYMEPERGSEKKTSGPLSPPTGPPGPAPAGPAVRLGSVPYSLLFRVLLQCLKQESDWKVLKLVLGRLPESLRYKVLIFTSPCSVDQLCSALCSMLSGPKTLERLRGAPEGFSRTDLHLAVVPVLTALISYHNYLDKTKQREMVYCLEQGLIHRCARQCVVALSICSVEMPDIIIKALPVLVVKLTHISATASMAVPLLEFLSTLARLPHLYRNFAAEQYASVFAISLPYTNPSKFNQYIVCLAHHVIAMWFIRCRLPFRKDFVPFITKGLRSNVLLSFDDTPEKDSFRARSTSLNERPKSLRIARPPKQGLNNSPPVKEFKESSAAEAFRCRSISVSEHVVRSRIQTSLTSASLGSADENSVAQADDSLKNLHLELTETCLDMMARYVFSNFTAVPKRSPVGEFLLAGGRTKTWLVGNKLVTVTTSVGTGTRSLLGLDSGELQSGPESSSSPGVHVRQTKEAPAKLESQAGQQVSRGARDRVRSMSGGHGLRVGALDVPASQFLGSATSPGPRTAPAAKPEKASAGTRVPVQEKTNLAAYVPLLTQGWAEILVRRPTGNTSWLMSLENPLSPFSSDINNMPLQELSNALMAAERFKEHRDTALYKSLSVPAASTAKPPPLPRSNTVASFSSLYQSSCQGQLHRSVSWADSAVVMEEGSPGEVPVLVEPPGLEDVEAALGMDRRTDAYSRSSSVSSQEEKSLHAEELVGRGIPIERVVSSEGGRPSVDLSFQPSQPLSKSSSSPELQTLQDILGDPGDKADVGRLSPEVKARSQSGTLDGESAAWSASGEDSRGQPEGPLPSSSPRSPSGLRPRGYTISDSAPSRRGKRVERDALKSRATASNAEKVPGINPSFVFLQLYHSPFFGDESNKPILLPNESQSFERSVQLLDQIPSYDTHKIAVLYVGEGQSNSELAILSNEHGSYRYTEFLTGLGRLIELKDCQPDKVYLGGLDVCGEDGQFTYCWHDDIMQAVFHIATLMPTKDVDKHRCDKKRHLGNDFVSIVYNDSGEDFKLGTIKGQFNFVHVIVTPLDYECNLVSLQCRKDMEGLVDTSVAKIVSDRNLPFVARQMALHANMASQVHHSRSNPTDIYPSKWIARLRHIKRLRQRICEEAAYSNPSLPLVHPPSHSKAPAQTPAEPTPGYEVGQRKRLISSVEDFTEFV
T4 sequence (P49815 other isoform, or with tags, fused parts or gaps limits assumed): as above
T3 sequence (P49815 other isoform, or with tags, fused parts or gaps): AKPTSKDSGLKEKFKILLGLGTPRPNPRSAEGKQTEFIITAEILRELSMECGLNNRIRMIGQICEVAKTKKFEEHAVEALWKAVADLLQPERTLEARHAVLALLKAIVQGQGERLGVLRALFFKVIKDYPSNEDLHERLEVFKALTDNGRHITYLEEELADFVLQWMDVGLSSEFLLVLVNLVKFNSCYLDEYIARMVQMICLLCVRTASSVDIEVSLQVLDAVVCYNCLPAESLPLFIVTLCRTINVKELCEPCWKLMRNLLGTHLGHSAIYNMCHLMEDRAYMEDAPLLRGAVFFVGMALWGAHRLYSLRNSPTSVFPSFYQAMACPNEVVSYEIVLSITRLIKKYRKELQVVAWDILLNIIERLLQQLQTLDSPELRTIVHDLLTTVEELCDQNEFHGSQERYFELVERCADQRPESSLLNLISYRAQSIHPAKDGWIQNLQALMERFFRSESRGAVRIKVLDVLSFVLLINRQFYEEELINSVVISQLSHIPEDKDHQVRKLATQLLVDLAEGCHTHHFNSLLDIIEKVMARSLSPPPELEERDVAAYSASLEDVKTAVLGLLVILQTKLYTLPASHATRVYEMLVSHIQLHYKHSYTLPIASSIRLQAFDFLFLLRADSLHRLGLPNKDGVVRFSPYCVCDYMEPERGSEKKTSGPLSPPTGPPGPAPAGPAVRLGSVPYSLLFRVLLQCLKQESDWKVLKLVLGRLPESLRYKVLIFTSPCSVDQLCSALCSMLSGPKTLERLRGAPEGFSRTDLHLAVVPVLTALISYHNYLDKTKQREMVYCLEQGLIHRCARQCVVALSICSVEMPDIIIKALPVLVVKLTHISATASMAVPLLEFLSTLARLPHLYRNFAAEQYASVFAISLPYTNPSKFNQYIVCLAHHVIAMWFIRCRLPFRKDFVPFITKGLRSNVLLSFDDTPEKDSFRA

B1: FLAG-hRTP801-L (REDD2) (other)
chain: MVATGSLSSKNPASISELLDCGYHPESLLSDFDYWDYVVPEPNLNEVIFEESTCQNLVKMLENCLSKSKQTKLGCSKVLVPEKLTQRIAQDVLRLSSTEPCGLRGCVMHVNLEIENVCKKLDRIVCDSSVVPTFELTLVFKQENCSWTSFRDFFFSRGRFSSGFRRTLILSSGFRLVKKKLYSLIGTTVIEGS
notes: Expressed in transfected 293T cells; also called FLAG-RTP801L; not shown: FLAG tag
As to B1, in assay [1], the binding result is “binds”.

B2: 6× His hRTP801 N-fragment (other)
chain: MPSLWDRFSSSSTSSSPSSLPRTPTPDRPPRSAWGSATREEGFDRSTSLESSDCESLDSSNSGFGPEEDTAYLDGVSLPDFELLSDPE
notes: not shown: 6× His tag
On to B2, for which, in assay [2], the binding result is on record as “no binding”.

B3: FLAG-(N-C2)hRTP801 (other)
chain: MPSLWDRFSSSSTSSSPSSLPRTPTPDRPPRSAWGSATREEGFDRSTSLESSDCESLDSSNSGFGPEEDTAYLDGVSLPDFELLSDPEDEHLCANLMQLLQESLAQARLGSRRPARLLMPSQLVSQVGKELLRLAYSEPCGLRGALLDVCVEQGKSCHSVGQLALDPSLVPTFQLTLVLRLDSRLWPKIQGLFSS
notes: also called hRTP801 N-C2 fragment; hRTP801 N-C2 mutant; not shown: FLAG tag
In the case of B3, in assay [3], the binding result is “binds”.

B4: FLAG-hRTP801 (other)
chain: T2 sequence
notes: Full length hRTP801 with FLAG tag, expressed in transfected 293T cells; also called FLAG-full length hRTP801; FLAG-tagged hRTP801; not shown: FLAG tag
For the molecule B4, the binding result in assay [4], in assay [1] and in assay [5] was “binds” throughout.
